Usually IC50 stands for the concentration that inhibits the measured activity by half. A low value points to greater potency.

Results on six molecules are retold here after patent US20050238642A1, “Modified bouganin proteins, cytotoxins and methods and uses thereof” (priority 2004, published 2005).

One experiment deals with NIH:OVCAR-3. The experiment in a line: MTS cytotoxicity assay. It counts as cell-based. The following applies: Ep-CAM-positive NIH:OVCAR-3, MTS, 5 days. As for the experimental part: The MTS assay used to measure potency was conducted using standard technique known in the art, and as more fully described below in Example 8. […] In the case of VB6-845-CL-de-bouganin, the potency was measured at 1 to 2 nM for CAL 27 and 0.6 to 0.7 nM versus NIH:OVCAR-3.
(§1) The MTS assay was preformed using standard techniques known in the art. More particularly, 50 microlitres of cells (2×10^4 cells/ml) were seeded per well and plates were incubated at 37° C. under 5% CO2 for 2 hr. Then 50 microlitres of spiked drug (i.e. construct to be tested or control) was added to the culture medium at increasing concentrations. Culture medium, with or without cells, was used as positive and negative controls, respectively. The plates were left at 37° C. under 5% CO2 for 5 days. At day 5, the inhibition of cell proliferation was evaluated by adding 20 microlitres of MTS reagent (Promega, Cat# G5430). The plates were further incubated at 37° C. under 5% CO2 for 2 hr and ODs were read at 490 nm using the plate reader spetrophotometer. Background values were subtracted from the sample values obtained for each concentration and the results were expressed as a percent of viable cells. The IC50 values for each drug were calculated for each cell line.
In general terms: Tetrazolium assays rely on reduction of a dye to a coloured formazan, in cell work by metabolically active cells.

Another experiment concerns A-375. The experiment in a line: MTS cytotoxicity assay. The following applies: Ep-CAM-negative A-375, MTS, 5 days. In kind it is cell-based. As for the experimental part:
as §1

For the next experiment, the system named is DAUDI. The experiment in a line: MTS cytotoxicity assay. It counts as cell-based. The following applies: Ep-CAM-negative DAUDI, 5 days. As for the experimental part:
as §1

The test system of another experiment is HMEC. The experiment in a line: MTS cytotoxicity assay. It counts as cell-based, human. The following applies: Ep-CAM-negative HMEC, 5 days. As for the experimental part: The tumour cell lines used in this study were purchase from ATCC and were propagated following ATCC's recommendations except for the cell lines C-41, TOV-112D which were grown in RPMI 1640 or DMEM supplemented with 10% FCS, respectively. Tumor cells were harvested at 60-70% confluence with viability over 90%. The human normal mammary epithelial cells (HMEC) were purchased from CAMBREX and maintained in specified media according to the procedure provided by CAMBREX. The cells were harvested at 70% confluence with viability over 90%.
as §1

For a further experiment, the system named is tumor cell lines. The experiment in a line: VB6-845 Tumor Cell Indications: binding for scFv 845 to tumor cell lines (median fluorescence). The source says: Tumor-targeting cytotoxins are composed of the variable region of an antibody linked to a bacterial, fungal or plant toxin. The present study illustrates that the deimmunized bouganin constructs of the invention, comprising deimmunized bouganin linked to a targeting moiety have reduced immunogenicity, while still retaining their biological activity.

Experiment [1] addresses T1, Ep-CAM (Epithelial Cell Adhesion Molecule) (human, UniProt P16422 24-314).
T1 sequence: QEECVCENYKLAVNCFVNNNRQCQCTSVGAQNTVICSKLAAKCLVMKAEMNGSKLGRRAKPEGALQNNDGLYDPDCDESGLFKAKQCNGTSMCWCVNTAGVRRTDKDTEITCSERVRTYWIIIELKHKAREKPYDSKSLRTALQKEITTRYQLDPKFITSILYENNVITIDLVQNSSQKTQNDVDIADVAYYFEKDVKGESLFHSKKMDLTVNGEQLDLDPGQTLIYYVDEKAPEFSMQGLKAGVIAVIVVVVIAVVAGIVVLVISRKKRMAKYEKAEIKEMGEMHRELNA
The experiment in a line: cell-based or functional assay.

In experiment [2] the target is T1, Ep-CAM (Epithelial Cell Adhesion …). The experiment in a line: cell-based or functional assay. The source holds these as a separate data set.
The target is the same in experiment [3]. The experiment in a line: flow cytometry, 10 µg/mL VB6-845 on HT-3 cells (cervical), anti-His detection; ± SEM. (In general: Flow cytometry measures light scatter and fluorescence of single cells or particles in a stream.)
For experiment [4] the target is unchanged. The experiment in a line: flow cytometry, 10 µg/mL VB6-845 on C-4 I cells (cervical), anti-His detection; ± SEM.
Experiment [5] has the same target. The experiment in a line: flow cytometry, 10 µg/mL VB6-845 on SK-OV-3 cells (ovarian), anti-His detection; ± SEM.
The target is the same in experiment [6]. The experiment in a line: flow cytometry, 10 µg/mL VB6-845 on RL95-2 cells (endometrial), anti-His detection; ± SEM.
Experiment [7] has the same target. The experiment in a line: flow cytometry, 10 µg/mL VB6-845 on HEC-1-A cells (endometrial), anti-His detection; ± SEM.
For experiment [8] the target is unchanged. The experiment in a line: flow cytometry, 10 µg/mL VB6-845 on NIH:OVCAR-3 cells (ovarian, Ep-CAM-positive), anti-His detection; ± SEM.
Experiment [9] has the same target. The experiment in a line: flow cytometry, 10 µg/mL VB6-845 on C-33A cells (cervical; Ep-CAM status of the line not stated), anti-His detection; ± SEM.
The target is the same in experiment [10]. The experiment in a line: flow cytometry, 10 µg/mL VB6-845 on TOV-112G cells (ovarian; Ep-CAM status of the line not stated), anti-His detection; ± SEM.
The target is the same in experiment [11]. The experiment in a line: flow cytometry, 10 µg/mL VB6-845 on SK-UT-1 cells (endometrial; Ep-CAM status of the line not stated), anti-His detection; ± SEM.

Turning to `CN(Cc1cnc2nc(N)nc(N)c2n1)c1ccc(C(=O)N[C@@H](CCC(=O)O)C(=O)O)cc1` [Methotrexate], the IC50 in the experiment with NIH:OVCAR-3 (Homo sapiens, 120 h) was over 1000 nM; with A-375 (Homo sapiens, 120 h), 6 nM; in the experiment on DAUDI (Homo sapiens, 120 h) it was 3.6 nM; with HMEC (Homo sapiens, 120 h) it was 41 nM.
Turning to `CO[C@@]12[C@H](COC(N)=O)C3=C(C(=O)C(C)=C(N)C3=O)N1C[C@@H]1N[C@@H]12` [Mitomycin C], the IC50 in the experiment with NIH:OVCAR-3 stood at 28 nM; with A-375, 14 nM; with DAUDI, 2.8 nM; in the experiment on HMEC, 50 nM.
As for `CC[C@@]1(O)C(=O)OCc2c1cc1n(c2=O)Cc2cc3c(CN(C)C)c(O)ccc3nc2-1` [Topotecan], the IC50 in the experiment with NIH:OVCAR-3 (Homo sapiens, 120 h) stood at 0.071 nM; in the experiment on A-375 (Homo sapiens, 120 h) it was 1.5 nM; with DAUDI (Homo sapiens, 120 h) it was 0.009 nM; with HMEC (Homo sapiens, 120 h) it was 4.1 nM.
Turning to Bleomycin Sulfate, the IC50 came to 30 nM in the experiment with NIH:OVCAR-3, 170 nM in the experiment with A-375, 22 nM in the experiment on DAUDI and 600 nM with HMEC.

B1: scFv 845: the Ep-CAM antibody of VB6-845, head prints scFv 845 (IgG) (antibody, chains of the INN, looked up, V domains shown)
VH: EVQLVQSGPGLVQPGGSVRISCAASGYTFTNYGMNWVKQAPGKGLEWMGWINTYTGESTYADSFKGRFTFSLDTSASAAYLQINSLRAEDTAVYYCARFAIKGDYWGQGTLLTVSS
VL: DIQMTQSPSSLSASVGDRVTITCRSTKSLLHSNGITYLYWYQQKPGKAPKLLIYQMSNLASGVPSRFSSSGSGTDFTLTISSLQPEDFATYYCAQNLEIPRTFGQGTKVELK
modifications: scFv
For B1, the “Binding for scFv 845 (IgG): mean fold-increase in median fluorescence over the control antibody” value in the experiment with tumor cell lines (Bladder, 14 cell lines) was 59.6 fold; with tumor cell lines (Cervical, 3 cell lines), 37.5 fold; in the experiment on tumor cell lines (Endometrial, 1 cell line), 23.8 fold; in the experiment on tumor cell lines (Esophageal, 3 cell lines), 72.4 fold; in the experiment with tumor cell lines (Gastric, 3 cell lines) it was 148.9 fold; in the experiment with tumor cell lines (Head and Neck, 2 cell lines), 11.4 fold. Also, the “Binding for scFv 845 (IgG): mean fold-increase in median fluorescence over the control antibody” value in the experiment with tumor cell lines (Kidney, 3 cell lines) was found to be 9.4 fold; in the experiment on tumor cell lines (Lung, 3 cell lines), 16.4 fold; in the experiment on tumor cell lines (Melanoma, 3 cell lines), 1.6 fold; in the experiment with tumor cell lines (Ovarian, 2 cell lines), 84.1 fold; in the experiment with tumor cell lines (Pancreas, 3 cell lines), 5.5 fold; in the experiment with tumor cell lines (Prostate, 5 cell lines), 50.1 fold.

B2: VB6-845 (Fab)
chain 1: EVQLVQSGPGLVQPGGSVRISCAASGYTFTNYGMNWVKQAPGKGLEWMGWINTYTGESTYADSFKGRFTFSLDTSASAAYLQINSLRAEDTAVYYCARFAIKGDYWGQGTLLTVSSASTKGPSVFPLAPSSKSTSGGTAALGCLVKDYFPEPVTVSWNSGALTSGVHTFPAVLQSSGLYSLSSVVTVPSSSLGTQTYICNVNHKPSNTKVDKKVEPKSCTRHRQPRGWEQLYNTVSFNLGEAYEYPTFIQDLRNELAKGTPVCQLPVTLQTIADDKRFVLVDITTTSKKTVKVAIDVTDVYVVGYQDKWDGKDRAVFLDKVPTVATSKLFPGVTNRVTLTFDGSYQKLVNAAKADRKALELGVNKLEFSIEAIHGKTINGQEAAKFFLIVIQMVSEAARFKYIETEVVDRGLYGSFKPNFKVLNLENNWGDISDAIHKSSPQCTTINPALQLISPSNDPWVVNKVSQISPDMGILKFKSSK
chain 2: HHHHHHDIQMTQSPSSLSASVGDRVTITCRSTKSLLHSNGITYLYWYQQKPGKAPKLLIYQMSNLASGVPSRFSSSGSGTDFTLTISSLQPEDFATYYCAQNLEIPRTFGQGTKVELKRTVAAPSVFIFPPSDEQLKSGTASVVCLLNNFYPREAKVQWKVDNALQSGNSQESVTEQDSKDSTYSLSSTLTLSKADYEKHKVYACEVTHQGLSSPVTKSFNRGEC
notes: also called Fab anti-Ep-CAM-de-bouganin (Bou156) construct
Regarding B2, in experiment [1], the “IC50 nM, MTS cytotoxicity assay, C-4 I cells (VB6-845 70% pure)” value is 1.7 nM; the “IC50 nM, MTS cytotoxicity assay, Caov-3 cells (VB6-845 70% pure)” value was 1.3 nM; the “IC50 nM, MTS cytotoxicity assay, HEC-1-A cells (VB6-845 70% pure)” value turned out to be 43 nM; the “IC50 nM, MTS cytotoxicity assay, HT-3 cells (VB6-845 70% pure)” value was found to be 23 nM. In addition, in experiment [1], the “IC50 nM, MTS cytotoxicity assay, KLE cells (VB6-845 70% pure)” value is over 100 nM; the “IC50 nM, MTS cytotoxicity assay, ME-180 cells (VB6-845 70% pure)” value was found to be 37 nM; the “IC50 nM, MTS cytotoxicity assay, MS751 cells (VB6-845 70% pure)” value was determined as 0.43 nM; the “IC50 nM, MTS cytotoxicity assay, NIH-OVCAR-3 cells (VB6-845 70% pure)” value came out at 3.4 nM. Moreover, in experiment [1], the “IC50 nM, MTS cytotoxicity assay, RL95-2 cells (VB6-845 70% pure)” value came to 100 nM and the “IC50 nM, MTS cytotoxicity assay, SK-OV-3 cells (VB6-845 70% pure)” value was over 100 nM. Also, in [2], the “IC50 nM, MTS cytotoxicity assay, NIH:OVCAR-3 cells (VB6-845 90% pure)” value was 1 nM. In experiment [3], the “fold-increase in MF” value was determined as 29.1 fold. Moreover, the “fold-increase in MF” value in experiment [4] stood at 6.8 fold. Besides, the “fold-increase in MF” value in experiment [5] worked out at 4.3 fold. In addition, in [6], the “fold-increase in MF” value stood at 4.9 fold. Further, in experiment [7], the “fold-increase in MF” value is 42.3 fold. The “fold-increase in MF” value in experiment [8] turned out to be 33.6 fold. In addition, the “fold-increase in MF” value in experiment [9] came out at 1.1 fold. Besides, the “fold-increase in MF” value in experiment [10] is 1.1 fold. Besides, the “fold-increase in MF” value in experiment [11] is 1.1 fold.
